From US20170129961A1 (Amgen, published 2017)

T1: human CD70 (human, UniProt P32970 1-193)
T1 construct: also called hu CD70; CD27L
T1 sequence: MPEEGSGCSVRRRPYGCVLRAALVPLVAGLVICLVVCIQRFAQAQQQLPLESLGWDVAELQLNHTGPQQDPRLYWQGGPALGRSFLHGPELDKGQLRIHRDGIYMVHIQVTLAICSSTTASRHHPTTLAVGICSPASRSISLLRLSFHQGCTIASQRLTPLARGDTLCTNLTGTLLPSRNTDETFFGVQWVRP

T2: full-length mouse CD70 with C-terminal V5 tag (mouse, UniProt O55237 1-195)
T2 construct: On transfected CHO cells; also called murine CD70
T2 sequence: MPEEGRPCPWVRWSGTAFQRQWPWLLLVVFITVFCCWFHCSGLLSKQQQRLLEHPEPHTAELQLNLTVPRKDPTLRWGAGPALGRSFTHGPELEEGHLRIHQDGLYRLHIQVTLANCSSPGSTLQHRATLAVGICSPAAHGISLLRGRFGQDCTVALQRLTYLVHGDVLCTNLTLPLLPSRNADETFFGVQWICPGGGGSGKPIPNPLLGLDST


Columns and labels:
human CD70 = biological target: T1, human CD70; test: FACS on CHO cells, periplasmic scFv
Description: (§1) All antibodies were diluted in PBS/1.5% FCS. As negative control, cells were incubated with PBS/2% FCS instead of the periplasmic extract. The samples were measured by flow cytometry.

[1] = biological target: T2, full-length mouse CD70 with C-terminal …; test: FACS on CHO cells, periplasmic scFv
Description: as §1

Binder | binding result (human CD70) | binding result [1]
CD70-12 (scFv, As m32) scFv: QAQLVESGGGVVQPGRSLRLSCAASGFTFSYYGMHWVRQAPGKCLEWVAVIWYDGSNKYYADSVKGRFTISRDNSKNTLYLQMNSLRAEDTAVYYCARDREMGSRGDFDYWGQGTLVTVSSGGGGSGGGGSGGGGSDIQMTQSPSSLSASVGDRVTITCRASQGINNYLAWFQQKPGKAPKSLIYAVSILQSGVPSKFSGSGSGTDFTLTIGNLQPEDFATYYCQQYNFYPFSFGCGTKVDIK | binds | no binding
CD70-11 (scFv, As m32) scFv: QVQLVESGGGVVQPGRSLRLSCAASGFTFSTYGMHWVRQAPGKCLEWVAVIWYDGSNKYYGDSVKGRFTISRDNSKNTLYLQMNSLRAEDTAVYYCARDNSHYYYGMDVWGQGTTVTVSSGGGGSGGGGSGGGGSQSVLTQPPSVSGAPGQRVTISCTGSSSNIGAGYDVNWYQQFPGTAPKLLIYVNNNRPSGVPDRFSGSTSGTSASLAITGLQAEDEADYYCQSYETSLSASVFGCGTRLTVL | binds | no binding
CD70-4 (scFv, As m32) scFv: QVQLVQSGAEVKKPGASVKVSCKASGYTFTSYGISWVRQAPGQGLEWMGWISAYNGYTHYAQKLQGRVTMTTDTSTSTAYMELRSLRSDDTAVYYCARDYGGNDYYGMDVWGQGTTVTVSSGGGGSGGGGSGGGGSQSVLTQPPSASGTPGQRVTISCSGSSSNIGINYVYWYQQLPGTAPKLLIYRSDQRPSGVPDRFSGSKSGTSASLALSGLRSEDEADYYCAAWDDSLSGVVFGGGTKLTVL | binds | no binding
CD70-9 (scFv, As m32) scFv: QVQLVQSGAEVKKPGASVKVSCKASGYTFTSYGISWVRQAPGQCLEWMGWISAYNGYTHYAQKLQGRVTMTTDTSTSTAYMELRSLRSDDTAVYYCARDYGGNDYYGMDVWGQGTTVTVSSGGGGSGGGGSGGGGSQSVLTQPPSASGTPGQRVTISCSGSSSNIGINYVYWYQQLPGTAPKLLIYRSDQRPSGVPDRFSGSKSGTSASLALSGLRSEDEADYYCAAWDDSLSGVVFGCGTKLTVL | binds | no binding
CD70-1 (scFv) scFv: QVQLVESGGGVVQPGRSLRLSCAASGFTFSTYGMHWVRQAPGKGLEWVAVIWYDGSNKYYGDSVKGRFTISRDNSKNTLYLQMNSLRAEDTAVYYCARDNSHYYYGMDVWGQGTTVTVSSGGGGSGGGGSGGGGSQSVLTQPPSVSGAPGQRVTISCTGSSSNIGAGYDVNWYQQFPGTAPKLLIYVNNNRPSGVPDRFSGSTSGTSASLAITGLQAEDEADYYCQSYDTSLSASVFGGGTRLTVLS | binds | no binding
CD70-2 (scFv) scFv: QVQLVESGGGVVQPGRSLRLSCAASGFTFSSYGMHWVRQAPGKGLEWVAVIWYDGSDKYFADSVKGRFTISRDNSKNTLYLQMNSLRAEDTAVYYCARDGIAGARYVYFDYWGQGTLVTVSSGGGGSGGGGSGGGGSDIQMTQSPSSLSASVGDRVTITCRASQGISNYLAWFQQKPGKAPKSLIYAASSLQGGVPSKFSGSGSGTDFTLTISSLQPEDFATYYCQQYYNYPFTFGPGTTVDIK | binds | no binding
CD70-8 (scFv) scFv: QVQLVESGGGVVQPGRSLRLSCAASGFTFSSYGMHWVRQAPGKCLEWVAVIWYDGSDKYFADSVKGRFTISRDNSKNTLYLQMNSLRAEDTAVYYCARDGIAGARYVYFDYWGQGTLVTVSSGGGGSGGGGSGGGGSDIQMTQSPSSLSASVGDRVTITCRASQGISNYLAWFQQKPGKAPKSLIYAASSLQGGVPSKFSGSGSGTDFTLTISSLQPEDFATYYCQQYYNYPFTFGCGTTVDIK | binds | no binding
CD70-10 (scFv, As m32) scFv: QVQLQESGPGLVKPSQTLSLTCTVSGDSIISGGYYWSWIRQHPGKCLEWIGYIFYSGSTDYNPSLKSRVTISVDTSKNQFSLKLSSVTAADTAVYYCARSGYSYALFDHWGQGTLVTVSSGGGGSGGGGSGGGGSDIQMTQSPSSLSASVGDRVTISCRASQFIGRYFNWYQQQPGKAPKVLIYAESSLQSGVPSRFSGSGSGTEFTLTISSLQPEDFARYYCQQSYSTPWTFGCGTKVEIK | binds | no binding
CD70-5 (scFv, As m32) scFv: QVQLQESGPGLVKPSQTLSLTCTVSGDSIISGGYYWSWIRQHPGKGLEWIGYIFYSGSTDYNPSLKSRVTISVDTSKNQFSLKLSSVTAADTAVYYCARSGYSYALFDHWGQGTLVTVSSGGGGSGGGGSGGGGSDIQMTQSPSSLSASVGDRVTISCRASQFIGRYFNWYQQQPGKAPKVLIYAESSLQSGVPSRFSGSGSGTEFTLTISSLQPEDFARYYCQQSYSTPWTFGQGTKVEIK | binds | no binding
CD70-6 (scFv, As m32) scFv: QVQLQESGPGLVKPSQTLSLTCTVSGDSIISGGYYWSWIRQHPGKCLEWIGYIFYSGSTDYNPSLKSRVTISVDTSKNQFSLKLSSVTAADTAVYYCARSGYSYALFDHWGQGTLVTVSSGGGGSGGGGSGGGGSDIQMTQSPSSLSASVGDRVTISCRASQFIGRYFNWYQQQPGKAPKVLIYAESSLQSGVPSRFSGSGSGTEFTLTISSLQPEDFARYYCQQSYSTPFTFGCGTKVEIK | binds | no binding
CD70-13 (scFv) scFv: EVQLLESGGGLVQPGGSLRLSCAASGFTFSSYAMSWVRQAPGKGLEWVSVISGSGGRPNYADSVKGRFTISRDNSKNTLYLQMNSLRDEDTAVYYCAKVDYSNYLFFDYWGQGTLVTVSSGGGGSGGGGSGGGGSEIVLTQSPGTLSLSPGEGATLSCRAGQSVRSSYLGWYQQKPGQAPRLLIYGASSRATGIPDRFSGSGSGTDFTLTISRLEPEDFAVYYCQQYGYSPPTFGGGTKLEIK | binds | no binding
CD70-14 (scFv, As m32) scFv: EVQLLESGGGLVQPGGSLKLSCAASGFTFSIYAMSWVRQAPGKGLEWVSAISGSGGSTFYADSVKGRFTISRDNSKNTLYLQMNSLRAEDTAVYYCAKHDYSNYPYFDYWGQGTLVTVSSGGGGSGGGGSGGGGSEIVLTQSPGTLSLSPGERATLSCRASQSVRSSYLAWYQQKPGQAPRLLIYGASSRATGIPDRFSGSGSGTDFTLTISRLEPEDFAVYYCQQYGDLPFTFGPGTKLEIK | binds | no binding
CD70-16 (scFv, As m32) scFv: EVQLLESGGGMVQPGGSLRLSCAASGFTFSSYAMSWVRQAPGKGLEWVSAISGSGGRTFYADSVEGRFTISRDNSKNTLYLQMNSLRAEDTAVYYCAKHDYSNYPYFDYWGQGTLVTVSSGGGGSGGGGSGGGGSEIVLTQSPGTLSLSPGERATLSCRASQSIRSSYLAWYQQKPGQAPRLLIYGASSRATGIPDRFSGSGSGTDFTLTISRLEPEDFAVYYCQQYGDLPFTFGPGTKLEIK | binds | no binding
CD70-19 (scFv, As m32) scFv: EVQLLESGGGLVQPGGSLRLSCAASGFTFSTYAMSWVRQAPGKGLEWVSAISGSGGSTFYADSVKGRFTISRDNSKNTLSLQMNSLRAEDTAVYYCAKHDYSNYPYFDYWGQGTLVTVSSGGGGSGGGGSGGGGSEIVLTQSPGTLSLSPGERATLSCRASQSVRSSYLAWYQQKPGQAPRLLIYGASSRATGIPDRFSGSGSGTDFTLTISRLEPEDFAVYYCQQYGDLPFTFGPGTKLEIK | binds | no binding
CD70-18 (scFv, As m32) scFv: EVQLLESGGGLVQPGGSLRLSCAASGFTFSSYAMSWVRQAPGKGLEWVSLISGSGGRTHYADSVKGRFTISRDNSKNTLYLQMNSLRAEDTAVYYCAKHDYSNYPYFDYWGQGTLVTVSSGGGGSGGGGSGGGGSEIVLTQSPGTLSLSPGERATLSCRASQSVRSTYLAWYQQKPGQAPRLLIYDASSRATGIPDRFSGSGSGTDFTLTISRLEPEDFAVYFCQQYGSSPPTFGGGTKLEIK | binds | no binding
CD70-21 (scFv, As m32) scFv: EVQLLESGGGMVQPGGSLRLSCAASGFTFSTYAMSWVRQAPGKGLEWVSAISGSGGRTFYADSVEGRFTISRDNSKNTLYLQMNSLRAEDTAVYYCAKHDYSNYPYFDYWGQGTLVTVSSGGGGSGGGGSGGGGSEIVLTQSPGTLSLSPGERATLSCRASQSVRSTYLAWYQQKPGQAPRLLIYGASSRATGIPDRFSGSGSGTDFTLTISRLEPEDFAVYSCQQYGDLPFTFGPGTKLEIK | binds | no binding
CD70-3 (scFv, As m32) scFv: QEQLVESGGGVVQPGRSLRLSCAASGFTFSSYGMHWVRQAPGKGLEWVAVTWYDGSNKYYGDSVKGRFTISRDNSKNTLYLQMNSLRAEDTAVYYCARDLLRGVKGYAMDVWGQGTTVTVSSGGGGSGGGGSGGGGSEIVLTQSPGTLSLSPGERATLSCRASQSLRRIYLAWYQQKPGQAPRLLIYDVFDRATGIPDRFSGGGSGTDFTLTISRLEPEDFAVYYCQQYSDSPFTFGPGTKVDIK | binds | no binding
CD70-7 (scFv, As m32) scFv: QVHLVQSGAEVKKPGASVRVSCKASGYTFTSYYLHWVRQAPGQCLEWMGIVDPSGGSTSYDQKFQGRFTMTRDTSTSTVYMELSSLRSEDTAVYYCARDYGDYVFDYWGQGTLVTVSSGGGGSGGGGSGGGGSQSVLTQPPSASGTPGQRVTISCSGSSSNIGTNTVNWYQQLPGTAPQLLIYINNQRPSGVPDRFSGSKSGTSASLAISGLQSEDEADYYCATWDDSLNGPVVGCGTKLTVL | binds | no binding
